Laboratory results: patent publication US11453711B2, “Fusion proteins of GLP-1 and GDF15 and conjugates thereof” (BEIJING QL BIOPHARMACEUTICAL CO., LTD., priority 2019, dated 2022)

B1: MLC013: fusion polypeptide SEQ ID NO: 260 conjugated with Moiety A at 1K of Linker (conjugate)
chain: HGEGTFTSDVSSYLEEQAAREFIAWLVRGGGKQEPGAQPGQEPGAQPGQEPGAQPGQEPGAQPGQEPGAQPGQEPGAQPGAQPGAQPGAQPGAQPGAQPGAQPGAQPGAQPARQGDHCPLGPGRCCRLHTVRASLEDLGWADWVLSPREVQVTMCIGACPSQFRAANLHAQIKTSLHRLRPDTVPAPCCVPASYNPMVLIQRTDTGVSLQTYDDLLARDCHCI
modifications: Moiety A conjugated at linker K1
B2: MLC007: fusion polypeptide SEQ ID NO: 254 conjugated with Moiety A at 1K of Linker (conjugate)
chain: HGEGTFTSDVSSYLEEQAAREFIAWLVRGGGKQEPGQEPGQEPGQEPGQEPGQEPGQEPGQEPGAQPGAQPARQGDHCPLGPGRCCRLHTVRASLEDLGWADWVLSPREVQVTMCIGACPSQFRAANLHAQIKTSLHRLRPDTVPAPCCVPASYNPMVLIQRTDTGVSLQTYDDLLARDCHCI
modifications: Moiety A conjugated at linker K1
B3: MLC005: fusion polypeptide SEQ ID NO: 252 conjugated with Moiety A at 12K of Linker (conjugate)
chain: HGEGTFTSDVSSYLEEQAAREFIAWLVRGGGGQEPGQEPGQEKGQEPGQEPGQEPGQEPGQEPGAQPGAQPARQGDHCPLGPGRCCRLHTVRASLEDLGWADWVLSPREVQVTMCIGACPSQFRAANLHAQIKTSLHRLRPDTVPAPCCVPASYNPMVLIQRTDTGVSLQTYDDLLARDCHCI
modifications: Moiety A conjugated at linker K12
B4: MLC009: fusion polypeptide SEQ ID NO: 256 conjugated with Moiety A at 15K of Linker (conjugate)
chain: HGEGTFTSDVSSYLEEQAAREFIAWLVRGGGGQEPGQEPGQEPGQKPGQEPGQEPGQEPGQEPGAQPGAQPARQGDHCPLGPGRCCRLHTVRASLEDLGWADWVLSPREVQVTMCIGACPSQFRAANLHAQIKTSLHRLRPDTVPAPCCVPASYNPMVLIQRTDTGVSLQTYDDLLARDCHCI
modifications: Moiety A conjugated at linker K15
B5: MLC008: fusion polypeptide SEQ ID NO: 255 conjugated with Moiety A at 6K of Linker (conjugate)
chain: HGEGTFTSDVSSYLEEQAAREFIAWLVRGGGGQEPGKEPGQEPGQEPGQEPGQEPGQEPGQEPGAQPGAQPARQGDHCPLGPGRCCRLHTVRASLEDLGWADWVLSPREVQVTMCIGACPSQFRAANLHAQIKTSLHRLRPDTVPAPCCVPASYNPMVLIQRTDTGVSLQTYDDLLARDCHCI
modifications: Moiety A conjugated at linker K6
B6: MLC002: fusion polypeptide SEQ ID NO: 249 conjugated with Moiety A at 26K of GLP-1 (conjugate)
chain: HGEGTFTSDVSSYLEEQAAKEFIAWLVRGGGGQEPGQEPGQEPGQEPGQEPGQEPGQEPGQEPGAQPGAQPARQGDHCPLGPGRCCRLHTVRASLEDLGWADWVLSPREVQVTMCIGACPSQFRAANLHAQIKTSLHRLRPDTVPAPCCVPASYNPMVLIQRTDTGVSLQTYDDLLARDCHCI
modifications: Moiety A conjugated at K26
B7: MLC006: fusion polypeptide SEQ ID NO: 253 conjugated with Moiety A at 36K of GLP-1 (conjugate)
chain: HGEGTFTSDVSSYLEEQAAREFIAWLVRGKGGQEPGQEPGQEPGQEPGQEPGQEPGQEPGQEPGAQPGAQPARQGDHCPLGPGRCCRLHTVRASLEDLGWADWVLSPREVQVTMCIGACPSQFRAANLHAQIKTSLHRLRPDTVPAPCCVPASYNPMVLIQRTDTGVSLQTYDDLLARDCHCI
modifications: Moiety A conjugated at K36

What was measured:
[1] = Pharmacokinetic measurement in mouse, single sc dose 30 nmol/kg, plasma ELISA; conditions: for Cmax: read-out: Cmax (nmol/L), single sc dose 30 nmol/kg; for AUC0-24 h / Terminal t1/2 / Tmax: single sc dose 30 nmol/kg
Protocol: Each fusion protein was injected subcutaneously into C57BL/6 mice (n=3/group) once and plasma samples were collected at designed time points and analyzed by ELISA method. Plasma concentrations are indicated as mean values and standard error (SEM).
6-8 week old male C57BL/6 mice were administrated in a single subcutaneous dose of 30 nmol/kg of the fusion protein conjugates or unconjugated fusion proteins (i.e., MLC002, MLC004, MLC005, MLC006, MLC007, MLC008, MLC009, MLC013, MLC017, MLC047, MLC074, MLC075, MLC089, MLC093, MLC003 and MLC019) (n=3/group). Plasma samples were collected pre-dose (−5 min), 0.5 hr, 1 hr, 2 hr, 4 hr, 6 hr, 8 hr, 12 hr, 24 hr, 48 hr and 72 hr after the injection. The concentrations of the fusion protein conjugates in the plasma were measured by an ELISA assay which has immunoreactivity towards both GDF15 and intact N-terminal of GLP-1. Based on the graph showing plasma concentration of each protein versus time after subcutaneous injection, the pharmacokinetic parameters (including Tmax, Cmax, T1/2, AUC) were calculated by WinNonlin software.

[2] = Efficacy in db/db mice: body weight, food intake, glucose, biomarkers, daily sc 14 days; type: in vivo
Protocol: (§1) FIGS. 4A-4D show In vivo efficacy in db/db mice. To evaluate the body weight, food intake and glucose effects of the fusion proteins, 8 week old male db/db mice were dosed everyday subcutaneously with 30 nmol/kg protein for 14 days. […] Compared to Vehicle control: ***, p<0.001. Data are expressed as mean values and standard error (SEM) for FIGS. 4A, 4B and 4D. n=5 for each treatment group. For FIG. 4C, a pooled food intake was measured for each treatment group.
FIGS. 5A-5F show In vivo efficacy in db/db mice. To evaluate the body weight, food intake and glucose effects of the fusion proteins, 8 week old male db/db mice were dosed everyday subcutaneously with different concentrations of proteins for 14 days. FIGS. 5A and 5B show body weight loss upon protein treatments from Day1 to Day15. […] Compared to Vehicle control: ***, p<0.001; **, p<0.01; *, p<0.05; ns, non-statistically significant; FIGS. 5D and 5E show cumulative food intake with protein treatments from Day1 to Day15. […] Compared to Vehicle control: ***, p<0.001**, p<0.01; *, p<0.05; ns, non-statistically significant. Data are expressed as mean values and standard error (SEM) for FIGS. 5A, 5B, 5C and 5F. n=5 for each treatment group. For FIGS. 5D and 5E, a pooled food intake was measured for each treatment group.
as §1, with “8A-8I” for “4A-4D”, “different concentrations of proteins” for “30 nmol/kg protein”, “FIGS. 8D-8F show body weight loss upon dose titrations of fusion protein conjugates. […]” for “Compared to Vehicle control: ***, p<0.001.”, “8A” for “4A, 4B”, “8C-I.” for “4D.”, “8B,” for “4C,”
Selected fusion protein conjugates are assessed in disease animal models (DIO mice, db/db mice, etc.) to determine body weight, food intake, glucose efficacy with dose responses. Some biomarkers are also measured, including fasting insulin, plasma triglyceride, cholesterol, liver triglyceride, and inflammatory biomarkers (ALT, AST and CRP).
8 week old male db/db mice were injected everyday subcutaneously with designated proteins for 14 days. Age matched lean mice were used as control. Food intake and body weight were measured daily and five animals were used for each treatment group. Fasting glucose were tested on designated days as shown in each figure. Body weight was monitored for each individual animal, but food intake for each group animals was measured together. Day 1 and Day 14 are first day and last day of molecule dosage. % BW loss=100*(BW on Day n-BW on Day 1)/(BW on Day 1). Cumulative food intake on Day n represents sum of food intake from Day 1 to Day n. Terminal blood was collected and EDTA-2K plasma was prepared and frozen at −80° C. for biomarker measurement. Liver was also collected and frozen in liquid nitrogen and store at −80° C. Data are indicated as mean values and standard error (SEM) or pooled values. Statistical analysis was performed by One-way ANOVA.

[3] = Body weight and food intake in C57BL/6 mice, fusion protein conjugates, 30 nmol/kg daily 10 days; type: in vivo
Outline: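 Male C57BL/6 mice received fusion protein conjugates by daily subcutaneous injection, with dosing running from Day 1 to Day 10. Body weight was recorded daily per animal and food intake daily per group. Body weight reduction was expressed relative to vehicle percent loss from Day 1. Cumulative food intake reduction was expressed as percent decrease versus vehicle.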

[4] = PK study in non-human primates, single sc dose 5 nmol/kg, plasma ELISA; conditions: monkey, single sc dose 5 nmol/kg
[5] = Body weight and food intake in lean C57BL/6 mice, lysine conjugated compounds, 15 nmol/kg daily sc 14 days; type: in vivo; conditions: for BW reduction: 15 nmol/kg daily sc 14 days, versus Semaglutide; for Body weight reduction at 15 nmol/kg (% reduction compared to vehicle)(Day11) / Cumulative food intake reduction at 15 nmol/kg (% reduction compared to vehicle)(Day11): C57 mice, 15 nmol/kg daily sc
Protocol: FIGS. 1A-1F show In vivo activities of fusion proteins. To evaluate the body weight and food intake effects of the fusion proteins, 10 week old male C57BL/6J mice were dosed everyday subcutaneously with 15 nmol/kg protein for 14 days. Food intake and body weight were measured daily. FIGS. 1A and 1B show body weight loss upon protein treatments from Day1 to Day15. […] FIGS. 1D and 1E show cumulative food intake with protein treatments from Day1 to Day15. […] Vehicle: 1.42 mg/mL disodium phosphate dihydrate, 14 mg/mL propylene glycol pH7.4. Data are expressed as mean values and standard error (SEM) for FIGS. 1A, 1B and 1C. n=5 for each treatment group. For FIGS. 1D, 1E and 1F, a pooled food intake was measured for each treatment group.
10 week old male C57BL/6 mice were injected everyday subcutaneously with 15 nmol/kg of the fusion protein conjugates (i.e., MLC002, MLC 004, MLC 005, MLC 006, MLC 007, MLC 008, and MLC 009) for 14 days. Food intake and body weight were measured daily and five animals were used for each treatment group. Body weight (BW) was monitored for each individual animal, but food intake for each group animals was measured together. Day 1 and Day 14 are first day and last day of molecule dosage. % BW loss=100*(BW on Day n-BW on Day 1)/(BW on Day 1). Cumulative food intake on Day n represents sum of food intake from Day 1 to Day n. Data are indicated as mean values and standard error (SEM) or pooled values. Statistical analysis was performed by One-way ANOVA. Body weight reduction on Day 11 is calculated by −1*(% BW loss−% BW loss of vehicle group); Cumulative food intake reduction is calculated by −100*(cumulative food intake-cumulative food intake of vehicle)/cumulative food intake of vehicle.

[6] = 30 nmol/kg daily 14 days, FIG. 4, versus Semaglutide
[7] = 30 nmol/kg, FIG. 5A-E, versus Semaglutide, Tirzepatide and MLC014

Molecule | Cmax [1] | AUC0-24 h [1] | Terminal t1/2 [1] | Tmax [1] | body weight loss [2, 6] | food intake suppression [2, 6] | glucose lowering effect ([2]; 30 nmol/kg daily 14 days, FIG. 4D) | body weight loss [2, 7] | food intake suppression [2, 7] | efficacy ([2]; FIG. 5 study) | Body weight reduction at 30 nmol/kg (% reduction compared to vehicle)(Day11) [3] | Cumulative food intake reduction at 30 nmol/kg (% reduction compared to vehicle)(Day11) [3] | AUC0-96 h [4] | Terminal t1/2 [4] | Tmax [4] | Cmax ([4]; read-out: Cmax (nmol/L)) | BW reduction [5] | Body weight reduction at 15 nmol/kg (% reduction compared to vehicle)(Day11) [5] | Cumulative food intake reduction at 15 nmol/kg (% reduction compared to vehicle)(Day11) [5]
B1 | 38.5 nmol/L | 0.5035 µM·h | 8.9 h | 3.3 h | sustainable and much better effect | sustainable and much better effect | comparable glucose lowering effect to Semaglutide | sustainable and much better effect | sustainable and much better effect | better efficacy than Semaglutide and GDF15 derivative (MLC014) | 21.4% | 45.2% | 1.435 µM·h | 26 h | 7 h | 41.3 nmol/L |  |  | 
B2 | 10.4 nmol/L | 0.0638 µM·h | 4.7 h | 0.5 h |  |  |  |  |  |  |  |  |  |  |  |  | statistically significantly enhanced BW loss efficacy than Semaglutide | 11.3% | 21.8%
B3 | 16.7 nmol/L | 0.1172 µM·h | 4.2 h | 2.0 h |  |  |  |  |  |  |  |  |  |  |  |  |  | 12.6% | 9.1%
B4 | 17 nmol/L | 0.1578 µM·h | 4.2 h | 3.3 h |  |  |  |  |  |  |  |  |  |  |  |  | statistically significantly enhanced BW loss efficacy than Semaglutide | 14.6% | 23.9%
B5 | 20.8 nmol/L | 0.0822 µM·h | 4.2 h | 0.7 h |  |  |  |  |  |  |  |  |  |  |  |  |  | 10.9% | 19.5%
B6 | 4.6 nmol/L | 0.0362 µM·h | 5.0 h | 1.2 h |  |  |  |  |  |  |  |  |  |  |  |  |  | 5.0% | 7.5%
B7 | 9.9 nmol/L | 0.0719 µM·h | 4.4 h | 2.7 h |  |  |  |  |  |  |  |  |  |  |  |  |  | 9.3% | 23.0%
